Test results published in patent publication US20160331811A1, “NON-AGGLOMERATING BIOCONJUGATES OF AMYLIN-MIMETIC COMPOUNDS AND POLYETHYLENEGLYCOL” (UNIVERSIDADE FEDERAL DO RIO DE JANEIRO, priority 2013, published 2016).
Ends that are not written are not given here.

Legend:
RAMP2 = RAMP2 (Homo sapiens, UniProt O60895); assay: RAMP-FITC fluorescence anisotropy coreceptor binding assay (RAMP2); conditions: fluorescence anisotropy of RAMP-FITC, duplicate assays, FIG. 3 and 4
Procedure: (§1) Purified monoPEGylated human amylin was assayed for RAMP2 and RAMP3 coreceptor binding interaction.
(§2) RAMP (receptor activity modifying protein) was labeled with fluorescein isothiocianate for 1 h at 4° C. in PBS ([…]) pH 7.4, and purified by size exclusion chromatography (SEC) in Sepharose G25 (agarose-based chromatography media, provided by the US company GE HealthCare) using the same buffer. Labelling was confirmed by UV absorbance measurements at A280 and A490, allowing estimation of coupling efficiency, relying on about 0.5 fluorescein/RAMP molecule.

RAMP3 = biological target: T1, RAMP3 (Homo sapiens, UniProt O60896); assay: RAMP-FITC fluorescence anisotropy coreceptor binding assay (RAMP3); conditions: fluorescence anisotropy of RAMP-FITC, duplicate assays, FIG. 3 and 4
T1 sequence (O60896 24-148): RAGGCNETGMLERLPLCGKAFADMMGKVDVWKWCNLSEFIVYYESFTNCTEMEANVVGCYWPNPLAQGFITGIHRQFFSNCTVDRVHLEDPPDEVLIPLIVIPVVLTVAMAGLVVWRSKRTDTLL
Procedure: as §1, §2

[1] = Pharmacokinetics in swiss mice, plasma human amylin by ELISA; type: in vivo; conditions: 10 μg peptide in 100 uL saline, FIG. 6
Procedure: The pharmacokinetics of the monoPEGylated human amylin product were characterized in vivo in swiss mice. Mice were housed in a temperature-controlled room with a light-dark cycle of 12 h. Water and food were available ad libitum. Two groups were formed, control (free human amylin, not PEGylated) and PEGylated amylin. Animals received 100 uL of saline containing 10 μg of human amylin peptides, either free human amylin or purified monoPEGylated human amylin. Blood was collected retro-orbitally from mice (n=3 mice for each time interval), and the plasma was subjected to ELISA assay for human amylin as provided by the manufacturer (Millipore, Cat Number EZHA-52K—http://www.millipore.com/catalogue/item/ezha-52k).

[2] = Amyloid aggregation assay with thioflavin T (ThT); type: physicochemical; conditions: PBS pH 7.4, 37° C.
Procedure: Purified monoPEGylated human amylin of example 1 was re-suspended in DMSO and diluted to PBS pH 7.4 and allowed to incubate at 37° C. Samples were evaluated for amyloid aggregates by using the amyloid chromogenic probe thioflavin T (ThT).

RAMP2, sequence (O60895 43-175, species assumed): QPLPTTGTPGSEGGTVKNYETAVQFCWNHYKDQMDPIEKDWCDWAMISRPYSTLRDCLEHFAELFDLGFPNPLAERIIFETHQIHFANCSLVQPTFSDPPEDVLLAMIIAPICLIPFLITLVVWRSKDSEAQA

| apparent binding affinity for coreceptor RAMP2 (RAMP2) | apparent binding affinity for coreceptor RAMP3 (RAMP3) | Substance | plasma decay / duration of stability in plasma [1] | amyloid aggregation (ThT) ([2]; 3 days, FIG. 5) | amyloid aggregation (ThT) ([2]; day 7, FIG. 5) |
| --- | --- | --- | --- | --- | --- |
| non-specific binding | non-specific binding | HEWL: unrelated protein hen egg white lisozyme used as a control for non-specific binding |  |  |  |
|  |  | free human amylin: 37-aminoacid amyloid polypeptide of the Langerhans islets, CAS RN: 106602-62-4; not PEGylated control (KCNTATCATQRLANFLVHSSNNFGAILSSTNVGSNTY; not fully specified (C-terminus, bridges); cysteine pairing not given here) | fast plasma decay | almost all free human amylin was aggregated in amyloid form |  |
|  |  | monoPEGylated human amylin: monoconjugate of human amylin and mPEG, purified by C18 reversed phase, peak at 9 Kda (example 1) (KCNTATCATQRLANFLVHSSNNFGAILSSTNVGSNTY; not fully specified (C-terminus, bridges); cysteine pairing not given here; also: mono-mPEG conjugate, site not given here; UniProt P10997 34-70, looked up) | longer duration of stability in plasma |  | no signs of aggregation |
